Data from patent US20240084031A1 (Seagen, published 2024).

Legend:
[1] = biological target: T1, human FcγRI, full length on stably transfected CHO cells (human, UniProt P12314 16-374); test: cell-based competition binding, flow cytometry (LSRII): serial dilutions of unlabelled competitor against 50 nM Alexa Fluor 488-labelled h1F6 IgG1 on CHO cells expressing human FcγRI
T1 construct: whole, on cells; also called CD64; Fcγ receptor I
Procedure: (§1) Labeled cells were detected using an LSRII FACS analyzer.
(§2) Binding of humanized anti-CD70 (h1F6) antibody to CHO cells expressing full-length FcγRI was determined by competition binding. […] Labeled cells were detected using an LSRII FACS analyzer.

[2] = biological target: T2, human FcγRIIIa, 158V (high affinity), full length on stably transfected CHO cells (human, UniProt P08637 17-254); test: cell-based competition binding, flow cytometry (LSRII): serial dilutions of unlabelled competitor against 100 nM Alexa Fluor 488-labelled h1F6 IgG1 on CHO cells expressing human FcγRIIIa 158V
T2 construct: whole, on cells; CHO DG44 line '158V'; also called CD16
T2 sequence (P08637 17-254 F176V): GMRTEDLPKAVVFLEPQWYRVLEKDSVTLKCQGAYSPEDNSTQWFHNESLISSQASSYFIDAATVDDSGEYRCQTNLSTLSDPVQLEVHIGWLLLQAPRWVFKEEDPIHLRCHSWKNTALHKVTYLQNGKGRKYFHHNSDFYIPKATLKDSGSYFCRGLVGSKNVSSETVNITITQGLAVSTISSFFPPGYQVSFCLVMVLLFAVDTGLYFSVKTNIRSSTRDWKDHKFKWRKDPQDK
Procedure: as §1
(§3) Binding of variant humanized anti-CD70 (h1F6) antibodies to CHO cells expressing full-length FcγRIIIa was also determined by competition binding. […] Labeled cells were detected using an LSRII FACS analyzer.

[3] = biological target: T3, human CD70 on CD70 positive cell lines (human, UniProt P32970 1-193); test: 786-O cell binding, apparent KD of the IgG
T3 construct: whole, on cells
T3 sequence (looked up): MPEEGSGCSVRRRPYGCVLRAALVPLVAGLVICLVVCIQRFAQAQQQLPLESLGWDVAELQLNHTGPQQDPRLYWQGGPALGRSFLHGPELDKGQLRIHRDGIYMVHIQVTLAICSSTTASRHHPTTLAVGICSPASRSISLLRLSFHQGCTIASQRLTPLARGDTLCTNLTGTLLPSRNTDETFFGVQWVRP

[4] = biological target: T4, mouse CD70 (the corresponding antigen from mice) (mouse, UniProt O55237 45-195, limits assumed); test: not described (statement in the example on maximum tolerated dose)
T4 construct: Named only as 'the corresponding antigen from mice'
T4 sequence (looked up): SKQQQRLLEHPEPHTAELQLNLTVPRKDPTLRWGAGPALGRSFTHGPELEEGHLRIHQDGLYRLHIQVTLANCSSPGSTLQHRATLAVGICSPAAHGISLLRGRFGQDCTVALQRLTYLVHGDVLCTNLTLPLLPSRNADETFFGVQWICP

[5] = biological target: T3, human CD70 on CD70 positive cell lines; test: saturation binding of europium-labelled antibody to CD70+ ACHN cells (apparent KD)
Text: (§4) Humanized 1F6 antibody derivatives HDLA (hVHD and hVLA), HHLA (hVHH and hVLA), and HJLA (hVHJ and hVLA), and c1F6 were transiently expressed in 293 cells, labeled with europium using the Eu-N1 iodoacetamido chelate (Perkin Elmer), and analyzed for saturation binding to a panel of CD70 positive cell lines as described in detail in U.S. Patent Application No. 60/673,070, filed Apr. 19, 2005; and PCT International Publication No. WO 2006/113909.

[6] = biological target: T3, human CD70 on CD70 positive cell lines; test: saturation binding of europium-labelled antibody to CD70+ 786-O cells (apparent KD)
Text: as §4

[7] = biological target: T3, human CD70 on CD70 positive cell lines; test: saturation binding of europium-labelled antibody to CD70+ Caki-1 cells (apparent KD)
Text: as §4

[8] = biological target: T3, human CD70 on CD70 positive cell lines; test: saturation binding of europium-labelled antibody to CD70+ Caki-2 cells (apparent KD)
Text: as §4

[9] = biological target: T1, human FcγRI, full length on stably …; test: cell-based competition binding on CHO cells expressing full-length FcγRI, 'performed as described previously' (50 nM Alexa Fluor 488-labelled h1F6 IgG1)
Procedure: as §2
(§5) Binding of one of the variants, IgG1 S239C, to CHO cells expressing full-length FcγRIIIa and FcγRI was determined as described above. […] The control, parent antibody h1F6, binds to FcγRIIIa-expressing cells and FcγRI-expressing cells.

[10] = biological target: T2, human FcγRIIIa, 158V (high affinity), …; test: cell-based competition binding on CHO cells expressing full-length FcγRIIIa, 'performed as described previously' (158V line, 100 nM Alexa Fluor 488-labelled h1F6 IgG1); the sheet says only FcγRIIIA
Procedure: as §3, §5

[11] = biological target: T3, human CD70 on CD70 positive cell lines; test: 786-O cell binding; IC50 of the vcF2 conjugate over IC50 of the unconjugated IgG

T1 sequence (P12314 16-374): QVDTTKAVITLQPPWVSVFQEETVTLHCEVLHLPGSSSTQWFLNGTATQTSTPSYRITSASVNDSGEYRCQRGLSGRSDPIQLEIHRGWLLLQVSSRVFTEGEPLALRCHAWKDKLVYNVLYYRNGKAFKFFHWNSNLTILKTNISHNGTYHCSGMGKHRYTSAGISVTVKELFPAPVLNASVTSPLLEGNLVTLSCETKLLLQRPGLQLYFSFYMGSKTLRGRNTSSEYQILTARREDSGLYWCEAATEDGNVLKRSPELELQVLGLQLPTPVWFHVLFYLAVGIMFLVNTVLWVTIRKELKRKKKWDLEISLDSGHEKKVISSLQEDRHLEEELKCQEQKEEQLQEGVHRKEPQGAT

B1: h1F6 IgG1 vcMMAF(4) antibody drug conjugate (antibody)
heavy: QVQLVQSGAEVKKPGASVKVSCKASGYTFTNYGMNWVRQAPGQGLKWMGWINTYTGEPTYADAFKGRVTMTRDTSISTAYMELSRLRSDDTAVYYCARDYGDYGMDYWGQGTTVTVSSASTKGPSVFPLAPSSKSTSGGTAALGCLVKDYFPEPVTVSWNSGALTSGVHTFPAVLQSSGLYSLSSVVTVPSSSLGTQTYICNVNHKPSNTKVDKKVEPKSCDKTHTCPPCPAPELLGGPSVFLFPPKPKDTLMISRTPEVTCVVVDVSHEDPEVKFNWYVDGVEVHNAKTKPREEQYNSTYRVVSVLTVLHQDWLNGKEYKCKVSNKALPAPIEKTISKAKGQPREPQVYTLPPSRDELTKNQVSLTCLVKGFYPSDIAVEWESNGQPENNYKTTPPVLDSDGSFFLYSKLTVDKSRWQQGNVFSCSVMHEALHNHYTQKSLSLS
light: DIVMTQSPDSLAVSLGERATINCRASKSVSTSGYSFMHWYQQKPGQPPKLLIYLASNLESGVPDRFSGSGSGTDFTLTISSLQAEDVAVYYCQHSREVPWTFGQGTKVEIKRTVAAPSVFIFPPSDEQLKSGTASVVCLLNNFYPREAKVQWKVDNALQSGNSQESVTEQDSKDSTYSLSSTLTLSKADYEKHKVYACEVTHQGLSSPVTKSFNRGEC
modifications: vcMMAF conjugated, mean loading of 4 drugs/antibody; attachment residues not stated
notes: also called h1F6 G1-vcMMAF(4); IgG1-F4
B1: binds [1]; binds [2].

B2: humanized 1F6 antibody derivative HJLA (hVHJ and hVLA), human IgG1 (antibody)
heavy: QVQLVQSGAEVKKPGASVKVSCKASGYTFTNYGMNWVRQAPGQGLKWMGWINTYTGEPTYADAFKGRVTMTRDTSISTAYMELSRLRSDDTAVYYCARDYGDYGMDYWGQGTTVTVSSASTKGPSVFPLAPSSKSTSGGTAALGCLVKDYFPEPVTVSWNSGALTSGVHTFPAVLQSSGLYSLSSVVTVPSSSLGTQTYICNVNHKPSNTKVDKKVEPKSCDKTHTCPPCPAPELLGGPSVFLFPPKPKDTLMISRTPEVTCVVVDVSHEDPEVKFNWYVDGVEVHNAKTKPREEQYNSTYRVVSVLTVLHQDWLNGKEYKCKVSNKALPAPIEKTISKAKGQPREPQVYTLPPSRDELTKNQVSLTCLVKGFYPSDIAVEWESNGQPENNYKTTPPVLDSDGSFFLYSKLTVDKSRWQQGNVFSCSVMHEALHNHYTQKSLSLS
light: DIVMTQSPDSLAVSLGERATINCRASKSVSTSGYSFMHWYQQKPGQPPKLLIYLASNLESGVPDRFSGSGSGTDFTLTISSLQAEDVAVYYCQHSREVPWTFGQGTKVEIKRTVAAPSVFIFPPSDEQLKSGTASVVCLLNNFYPREAKVQWKVDNALQSGNSQESVTEQDSKDSTYSLSSTLTLSKADYEKHKVYACEVTHQGLSSPVTKSFNRGEC
notes: also called h1F6 HJLA; h1F6 IgG1
With B2 the Kd [3] was 0.6 nM, the binding result [4] was “no binding” and the Kd [5] was 0.68 nM. The Kd [6] was 0.46 nM, the Kd [7] was 1.36 nM and the Kd [8] was 0.37 nM. The “IC50 (read off the curve)” value [9] was about 6 nM and the “IC50 (read off the curve)” value [10] was about 200 nM.

B3: h1F6 IgG4 vcMMAF(4) antibody drug conjugate (antibody)
heavy: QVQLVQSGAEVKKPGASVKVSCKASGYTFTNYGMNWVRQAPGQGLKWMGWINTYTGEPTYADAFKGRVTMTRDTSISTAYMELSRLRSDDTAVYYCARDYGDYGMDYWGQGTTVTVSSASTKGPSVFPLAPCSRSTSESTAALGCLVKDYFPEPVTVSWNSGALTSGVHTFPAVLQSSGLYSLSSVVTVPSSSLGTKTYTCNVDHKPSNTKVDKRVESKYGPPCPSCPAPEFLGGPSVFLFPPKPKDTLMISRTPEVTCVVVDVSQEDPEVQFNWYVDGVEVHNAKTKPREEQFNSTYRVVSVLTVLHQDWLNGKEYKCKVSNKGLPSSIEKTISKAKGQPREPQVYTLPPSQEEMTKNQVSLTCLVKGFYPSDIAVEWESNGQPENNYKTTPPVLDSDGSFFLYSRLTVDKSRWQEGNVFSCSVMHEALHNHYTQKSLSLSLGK
light: DIVMTQSPDSLAVSLGERATINCRASKSVSTSGYSFMHWYQQKPGQPPKLLIYLASNLESGVPDRFSGSGSGTDFTLTISSLQAEDVAVYYCQHSREVPWTFGQGTKVEIKRTVAAPSVFIFPPSDEQLKSGTASVVCLLNNFYPREAKVQWKVDNALQSGNSQESVTEQDSKDSTYSLSSTLTLSKADYEKHKVYACEVTHQGLSSPVTKSFNRGEC
modifications: vcMMAF conjugated, mean loading of 4 drugs/antibody; attachment residues not stated
notes: also called h1F6 G4-vcMMAF(4); IgG4-F4
B3 was tested, and the “IC50 (read off the curve)” value [1] was about 10 nM.

B4: h1F6 IgG1 S239C (antibody)
heavy: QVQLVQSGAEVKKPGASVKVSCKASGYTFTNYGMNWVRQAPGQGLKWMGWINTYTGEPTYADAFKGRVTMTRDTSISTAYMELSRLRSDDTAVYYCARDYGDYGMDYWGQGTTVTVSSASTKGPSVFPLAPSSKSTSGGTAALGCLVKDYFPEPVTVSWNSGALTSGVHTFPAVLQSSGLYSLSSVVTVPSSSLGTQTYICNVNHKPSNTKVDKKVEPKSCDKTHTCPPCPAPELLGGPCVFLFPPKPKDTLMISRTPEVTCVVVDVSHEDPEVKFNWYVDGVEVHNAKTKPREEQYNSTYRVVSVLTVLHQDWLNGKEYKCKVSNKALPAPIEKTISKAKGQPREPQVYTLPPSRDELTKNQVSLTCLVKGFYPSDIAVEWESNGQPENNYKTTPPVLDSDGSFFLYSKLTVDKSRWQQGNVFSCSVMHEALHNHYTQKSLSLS
light: DIVMTQSPDSLAVSLGERATINCRASKSVSTSGYSFMHWYQQKPGQPPKLLIYLASNLESGVPDRFSGSGSGTDFTLTISSLQAEDVAVYYCQHSREVPWTFGQGTKVEIKRTVAAPSVFIFPPSDEQLKSGTASVVCLLNNFYPREAKVQWKVDNALQSGNSQESVTEQDSKDSTYSLSSTLTLSKADYEKHKVYACEVTHQGLSSPVTKSFNRGEC
With B4 the Kd [3] was 1 nM, the “IC50 (read off the curve)” value [9] was about 10 nM and the binding result [10] was “binds”.

B5: h1F6 IgG1 S239C conjugated to vcMMAF (average of 2 drugs/antibody) (antibody)
heavy: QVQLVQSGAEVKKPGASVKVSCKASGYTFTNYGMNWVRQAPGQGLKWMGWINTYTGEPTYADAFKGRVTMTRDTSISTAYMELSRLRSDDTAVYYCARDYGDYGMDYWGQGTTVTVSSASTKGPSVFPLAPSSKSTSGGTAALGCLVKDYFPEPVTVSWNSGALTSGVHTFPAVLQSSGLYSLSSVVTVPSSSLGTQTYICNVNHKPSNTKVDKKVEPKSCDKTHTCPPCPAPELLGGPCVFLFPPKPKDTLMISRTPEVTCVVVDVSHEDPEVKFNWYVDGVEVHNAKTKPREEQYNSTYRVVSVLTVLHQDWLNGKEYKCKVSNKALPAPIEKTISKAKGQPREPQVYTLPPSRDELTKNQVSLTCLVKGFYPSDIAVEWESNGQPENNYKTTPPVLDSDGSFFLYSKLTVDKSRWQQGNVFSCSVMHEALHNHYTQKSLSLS
light: DIVMTQSPDSLAVSLGERATINCRASKSVSTSGYSFMHWYQQKPGQPPKLLIYLASNLESGVPDRFSGSGSGTDFTLTISSLQAEDVAVYYCQHSREVPWTFGQGTKVEIKRTVAAPSVFIFPPSDEQLKSGTASVVCLLNNFYPREAKVQWKVDNALQSGNSQESVTEQDSKDSTYSLSSTLTLSKADYEKHKVYACEVTHQGLSSPVTKSFNRGEC
modifications: vcMMAF conjugated, average of 2 drugs/antibody; attachment residues not stated for the material tested
notes: also called IgG1 S239C vcMMAF; IgG1 S239C IgG-vcF2
In the case of B5, the “IC50 IgG-vcF2 / IC50 IgG” value [11] is reported as 1.1 ratio, the “IC50 (read off the curve)” value [9] is reported as about 8 nM and the binding result [10] is reported as “binds”.
